Test results from patent publication US20250042956A1 (University of California, published 2025).

Columns and labels:
Experiment in all cases: IP-MS rep 2
[1] = biological target: T1, AT3G10480.3 NAC050 (Arabidopsis thaliana, UniProt Q9SQX9 1-447, limits assumed)
T1 construct: Endogenous protein found by mass spectrometry
T1 sequence (looked up): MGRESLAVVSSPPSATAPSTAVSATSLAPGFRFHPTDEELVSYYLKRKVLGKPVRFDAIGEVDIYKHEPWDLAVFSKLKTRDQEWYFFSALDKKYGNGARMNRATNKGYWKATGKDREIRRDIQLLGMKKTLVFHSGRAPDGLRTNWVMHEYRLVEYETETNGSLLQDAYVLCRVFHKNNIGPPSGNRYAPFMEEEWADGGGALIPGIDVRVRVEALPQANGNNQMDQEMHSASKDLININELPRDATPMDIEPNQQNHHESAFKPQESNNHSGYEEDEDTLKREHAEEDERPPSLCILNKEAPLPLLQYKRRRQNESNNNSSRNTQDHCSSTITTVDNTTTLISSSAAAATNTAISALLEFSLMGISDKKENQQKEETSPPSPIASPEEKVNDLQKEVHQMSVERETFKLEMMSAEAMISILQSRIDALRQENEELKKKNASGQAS
Method in brief: (§1)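 Peptide counts for co-purified proteins come from mass spectrometry of proteins pulled down from Arabidopsis floral buds with anti-FLAG magnetic beads. Ten grams of unopened buds from wild-type and FLAG-tagged transgenic lines were ground in liquid nitrogen and homogenised in 25 mL IP buffer. Lysates were held with 250 μL anti-FLAG M2 magnetic beads at 4° C for 2 hours, and bound proteins were eluted in TBS with 250 μg/mL 3×FLAG peptides.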

[2] = biological target: T2, AT5G51230.1 EMF2 (Arabidopsis thaliana, UniProt Q8L6Y4 1-631)
T2 construct: Endogenous protein found by mass spectrometry; also called EMBRYONIC FLOWER 2
T2 sequence (looked up): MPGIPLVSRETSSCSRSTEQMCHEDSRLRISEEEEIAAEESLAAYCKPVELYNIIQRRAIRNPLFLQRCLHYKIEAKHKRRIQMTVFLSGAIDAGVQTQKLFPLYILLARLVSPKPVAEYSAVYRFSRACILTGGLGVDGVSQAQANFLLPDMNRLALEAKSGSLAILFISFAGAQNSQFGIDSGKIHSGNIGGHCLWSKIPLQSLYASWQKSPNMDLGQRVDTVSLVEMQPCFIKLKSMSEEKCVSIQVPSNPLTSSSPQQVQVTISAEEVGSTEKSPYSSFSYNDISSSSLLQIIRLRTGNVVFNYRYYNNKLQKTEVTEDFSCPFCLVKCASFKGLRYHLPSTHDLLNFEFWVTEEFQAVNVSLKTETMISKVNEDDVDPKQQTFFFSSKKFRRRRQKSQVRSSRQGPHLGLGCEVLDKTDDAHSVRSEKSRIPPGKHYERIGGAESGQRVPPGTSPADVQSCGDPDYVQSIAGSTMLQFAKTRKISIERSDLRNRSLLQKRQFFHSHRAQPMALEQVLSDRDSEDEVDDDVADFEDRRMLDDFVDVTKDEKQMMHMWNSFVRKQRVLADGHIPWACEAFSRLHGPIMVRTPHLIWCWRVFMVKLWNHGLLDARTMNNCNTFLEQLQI
Method in brief: as §1

[3] = biological target: T3, AT4G35510.1 TRBIP1 (Arabidopsis thaliana)
T3 construct: Endogenous protein found by mass spectrometry
T3 chain: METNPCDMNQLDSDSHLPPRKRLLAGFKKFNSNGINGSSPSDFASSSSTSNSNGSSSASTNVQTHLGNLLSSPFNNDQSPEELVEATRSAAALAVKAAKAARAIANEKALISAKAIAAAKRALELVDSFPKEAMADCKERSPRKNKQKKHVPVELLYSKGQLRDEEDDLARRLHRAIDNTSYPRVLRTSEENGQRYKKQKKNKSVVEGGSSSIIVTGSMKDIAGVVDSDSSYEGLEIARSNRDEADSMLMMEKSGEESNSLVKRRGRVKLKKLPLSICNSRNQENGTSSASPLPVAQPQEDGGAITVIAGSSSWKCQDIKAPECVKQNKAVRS
Method in brief: as §1

Measured: IP-MS count

B1: TRBIP2 (bait of the TRBIP2 IP-MS) (other, not shown: small tags and cut ends)
chain: MATNACLESDSLLPPRKRLLAGFKNQNSRISNESPSPPFASSSSSTTTSNGSSASAVVHTHHLDHLLNDQTRSPEELAQASKATAALAVKVAKAARATANEKAIIASKAVAAAKNALELFASFPAAETVSCKEPRLIRAINNSPRVLTDCSGHRNKKQKTLTSTMNDGNDVAGVVDSDDGTRVNGKLLLCDNTLKEKTEEESSSLGKRRGRVKLPLSMCAYKDQENGITLEENNLSVSKSEGYNGGVAQVIERPSWKCQDLKSPECVKQNKVVRS
notes: tag and its position not described; also called TRBIP2-1; TRBIP2-2
0: all assays above
